US20220144956A1 (published 2022)

B1: H1 L1.36 XENP34599 (antibody, V domains shown)
VH: QLQVQESGPGLVKPSETLSLTCTVSGGSISNSYFSWGWIRQPPGKGLEWIGSFYYGEKTYYNPSLKSRATISIDTSKSQFSLKLSSVTAADTAVYYCPRGPTMIRGVIDSWGQGTLVTVSS
VL: EIVLTQSPATLSLSPGERATLSCRASQSVRSYLAWYQQKPGQAPRLLIYDASNRATGIPARFSGSGSGTDFTLTISSLEPEDFAVYYCQQESNWPPTFGQGTKVEIK
B2: H1 L1.28 XENP34591 (antibody, V domains shown)
VH: QLQVQESGPGLVKPSETLSLTCTVSGGSISNSYFSWGWIRQPPGKGLEWIGSFYYGEKTYYNPSLKSRATISIDTSKSQFSLKLSSVTAADTAVYYCPRGPTMIRGVIDSWGQGTLVTVSS
VL: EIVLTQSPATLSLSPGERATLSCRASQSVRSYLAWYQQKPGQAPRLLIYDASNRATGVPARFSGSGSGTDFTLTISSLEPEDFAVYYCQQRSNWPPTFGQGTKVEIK
B3: H1 L1.18 XENP34581 (antibody, V domains shown)
VH: QLQVQESGPGLVKPSETLSLTCTVSGGSISNSYFSWGWIRQPPGKGLEWIGSFYYGEKTYYNPSLKSRATISIDTSKSQFSLKLSSVTAADTAVYYCPRGPTMIRGVIDSWGQGTLVTVSS
VL: EIVLTQSPATLSLSPGERATLSCRASQSVRSYLAWYQQKPGKAPRLLIYDASNRATGIPARFSGSGSGTDFTLTISSLEPEDFAVYYCQQRSNWPPTFGQGTKVEIK
B4: H1 L1.14 XENP34577 (antibody, V domains shown)
VH: QLQVQESGPGLVKPSETLSLTCTVSGGSISNSYFSWGWIRQPPGKGLEWIGSFYYGEKTYYNPSLKSRATISIDTSKSQFSLKLSSVTAADTAVYYCPRGPTMIRGVIDSWGQGTLVTVSS
VL: EIVLTQSPATLSLSPGERATLSCRASQSVRSNLAWYQQKPGQAPRLLIYDASNRATGIPARFSGSGSGTDFTLTISSLEPEDFAVYYCQQRSNWPPTFGQGTKVEIK
B5: H1 L1.26 XENP34589 (antibody, V domains shown)
VH: QLQVQESGPGLVKPSETLSLTCTVSGGSISNSYFSWGWIRQPPGKGLEWIGSFYYGEKTYYNPSLKSRATISIDTSKSQFSLKLSSVTAADTAVYYCPRGPTMIRGVIDSWGQGTLVTVSS
VL: EIVLTQSPATLSLSPGERATLSCRASQSVRSYLAWYQQKPGQAPRLLIYDASNRASGIPARFSGSGSGTDFTLTISSLEPEDFAVYYCQQRSNWPPTFGQGTKVEIK
B6: H1 L1.13 XENP34576 (antibody, V domains shown)
VH: QLQVQESGPGLVKPSETLSLTCTVSGGSISNSYFSWGWIRQPPGKGLEWIGSFYYGEKTYYNPSLKSRATISIDTSKSQFSLKLSSVTAADTAVYYCPRGPTMIRGVIDSWGQGTLVTVSS
VL: EIVLTQSPATLSLSPGERATLSCRASQSVRSHLAWYQQKPGQAPRLLIYDASNRATGIPARFSGSGSGTDFTLTISSLEPEDFAVYYCQQRSNWPPTFGQGTKVEIK
B7: H1 L1.41 XENP34604 (antibody, V domains shown)
VH: QLQVQESGPGLVKPSETLSLTCTVSGGSISNSYFSWGWIRQPPGKGLEWIGSFYYGEKTYYNPSLKSRATISIDTSKSQFSLKLSSVTAADTAVYYCPRGPTMIRGVIDSWGQGTLVTVSS
VL: EIVLTQSPATLSLSPGERATLSCRASQSVRSYLAWYQQKPGQAPRLLIYDASNRATGIPARFSGSGSGTDFTLTISSLEPEDFAVYYCQQRANWPPTFGQGTKVEIK
B8: H1 L1.32 XENP34595 (antibody, V domains shown)
VH: QLQVQESGPGLVKPSETLSLTCTVSGGSISNSYFSWGWIRQPPGKGLEWIGSFYYGEKTYYNPSLKSRATISIDTSKSQFSLKLSSVTAADTAVYYCPRGPTMIRGVIDSWGQGTLVTVSS
VL: EIVLTQSPATLSLSPGERATLSCRASQSVRSYLAWYQQKPGQAPRLLIYDASNRATGIPARFSGSGSGTDFTLTISSLQPEDFAVYYCQQRSNWPPTFGQGTKVEIK
B9: H1 L1.39 XENP34602 (antibody, V domains shown)
VH: QLQVQESGPGLVKPSETLSLTCTVSGGSISNSYFSWGWIRQPPGKGLEWIGSFYYGEKTYYNPSLKSRATISIDTSKSQFSLKLSSVTAADTAVYYCPRGPTMIRGVIDSWGQGTLVTVSS
VL: EIVLTQSPATLSLSPGERATLSCRASQSVRSYLAWYQQKPGQAPRLLIYDASNRATGIPARFSGSGSGTDFTLTISSLEPEDFAVYYCQQQSNWPPTFGQGTKVEIK
B10: H1 L1.8 XENP34571 (antibody, V domains shown)
VH: QLQVQESGPGLVKPSETLSLTCTVSGGSISNSYFSWGWIRQPPGKGLEWIGSFYYGEKTYYNPSLKSRATISIDTSKSQFSLKLSSVTAADTAVYYCPRGPTMIRGVIDSWGQGTLVTVSS
VL: EIVLTQSPATLSLSPGERATLSCRASQSVKSYLAWYQQKPGQAPRLLIYDASNRATGIPARFSGSGSGTDFTLTISSLEPEDFAVYYCQQRSNWPPTFGQGTKVEIK
B11: H1 L1.16 XENP34579 (antibody, V domains shown)
VH: QLQVQESGPGLVKPSETLSLTCTVSGGSISNSYFSWGWIRQPPGKGLEWIGSFYYGEKTYYNPSLKSRATISIDTSKSQFSLKLSSVTAADTAVYYCPRGPTMIRGVIDSWGQGTLVTVSS
VL: EIVLTQSPATLSLSPGERATLSCRASQSVRSYLSWYQQKPGQAPRLLIYDASNRATGIPARFSGSGSGTDFTLTISSLEPEDFAVYYCQQRSNWPPTFGQGTKVEIK
B12: H1 L1.44 XENP34607 (antibody, V domains shown)
VH: QLQVQESGPGLVKPSETLSLTCTVSGGSISNSYFSWGWIRQPPGKGLEWIGSFYYGEKTYYNPSLKSRATISIDTSKSQFSLKLSSVTAADTAVYYCPRGPTMIRGVIDSWGQGTLVTVSS
VL: EIVLTQSPATLSLSPGERATLSCRASQSVRSYLAWYQQKPGQAPRLLIYDASNRATGIPARFSGSGSGTDFTLTISSLEPEDFAVYYCQQRTNWPPTFGQGTKVEIK
B13: H1 L1.10 XENP34573 (antibody, V domains shown)
VH: QLQVQESGPGLVKPSETLSLTCTVSGGSISNSYFSWGWIRQPPGKGLEWIGSFYYGEKTYYNPSLKSRATISIDTSKSQFSLKLSSVTAADTAVYYCPRGPTMIRGVIDSWGQGTLVTVSS
VL: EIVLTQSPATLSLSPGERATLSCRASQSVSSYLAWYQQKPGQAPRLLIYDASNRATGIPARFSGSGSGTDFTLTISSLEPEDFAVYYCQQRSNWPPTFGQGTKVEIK
B14: H1 L1.17 XENP34580 (antibody, V domains shown)
VH: QLQVQESGPGLVKPSETLSLTCTVSGGSISNSYFSWGWIRQPPGKGLEWIGSFYYGEKTYYNPSLKSRATISIDTSKSQFSLKLSSVTAADTAVYYCPRGPTMIRGVIDSWGQGTLVTVSS
VL: EIVLTQSPATLSLSPGERATLSCRASQSVRSYLTWYQQKPGQAPRLLIYDASNRATGIPARFSGSGSGTDFTLTISSLEPEDFAVYYCQQRSNWPPTFGQGTKVEIK
B15: H1 L1.21 XENP34584 (antibody, V domains shown)
VH: QLQVQESGPGLVKPSETLSLTCTVSGGSISNSYFSWGWIRQPPGKGLEWIGSFYYGEKTYYNPSLKSRATISIDTSKSQFSLKLSSVTAADTAVYYCPRGPTMIRGVIDSWGQGTLVTVSS
VL: EIVLTQSPATLSLSPGERATLSCRASQSVRSYLAWYQQKPGQAPRLLIYGASNRATGIPARFSGSGSGTDFTLTISSLEPEDFAVYYCQQRSNWPPTFGQGTKVEIK
B16: H1 L1.15 XENP34578 (antibody, V domains shown)
VH: QLQVQESGPGLVKPSETLSLTCTVSGGSISNSYFSWGWIRQPPGKGLEWIGSFYYGEKTYYNPSLKSRATISIDTSKSQFSLKLSSVTAADTAVYYCPRGPTMIRGVIDSWGQGTLVTVSS
VL: EIVLTQSPATLSLSPGERATLSCRASQSVRSYLNWYQQKPGQAPRLLIYDASNRATGIPARFSGSGSGTDFTLTISSLEPEDFAVYYCQQRSNWPPTFGQGTKVEIK

Each binder was assayed against human TGFßRII (antigen of the Octet experiments) (human, UniProt P37173 23-166) (assay: BLI (Octet)).
human TGFßRII (antigen of the Octet experiments), sequence (P37173 23-166): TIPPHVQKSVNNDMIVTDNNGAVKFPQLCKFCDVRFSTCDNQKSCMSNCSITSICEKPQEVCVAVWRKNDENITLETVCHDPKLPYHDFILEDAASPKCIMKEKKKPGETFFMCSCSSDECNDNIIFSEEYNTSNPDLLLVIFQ

Binder | Kd [nM]
B1 | 59.3
B2 | 0.891
B3 | 0.831
B4 | 1.26
B5 | 0.99
B6 | 1.19
B7 | 2.49
B8 | 1
B9 | 21
B10 | 1.11
B11 | 0.464
B12 | 2.03
B13 | 10.7
B14 | 0.622
B15 | 0.429
B16 | 2.48
